assay: yeast display, Sf9 membrane polyspecificity reagent, FACS + sequencing; frameworks hold sequencing errors
Summary of the method: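 Synthetic nanobody libraries on Saccharomyces cerevisiae BJ5465 were galactose-induced for 36–48 hours, stained 1 hour at 4 °C with 10% biotinylated, detergent-solubilized Sf9 membrane reagent and enriched on streptavidin microbeads. FACS then separated cells into low and high (top ~1%) gates by anti-HA (expression) and streptavidin (reagent binding) fluorescence. Genes were colony-PCR amplified, MiSeq 2 × 250 sequenced and CDR-length filtered. A clone's polyreactivity label is that of its gate of origin.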

Sequence	polyreactivity (PSR sort gate)
QVQLVESGGGLVQAGGSLRLSCAASGRTFSINAMGWYRQAPGKERELVAAITWSGGSTYYADSVKGRFTISRDNAKNTVYLQMNSLKPEDTAVYYCNAGLGKFPVKGGRRYRLDYWGQGTQVTVSS	low polyreactivity
QVQLVESGGGLVQAGGSLRLSCAASGRTFSIYAMGWYRQAPGKERELVASITNSDGSTYYADSVKGRFTISRDNAKNTVYLQMNSLKPEDTAVYYWNVDSGKYWSLWTYVQYDDYWGQGTQVTVSS	low polyreactivity
QVQLVESGGGLVQAGGSLRLSCAASGRTFSKNVMGWYRQAPGKEREFVARISDSGVGTYYADSVKGRFTISRDNAKNTVYLQMNSLKPEDTAVYYCAAAVWYRGWYRYDYWGQGTQVTVSS	low polyreactivity
QVQLVESGGGLVQAGGSLRLSCAASGRTFSKNVMGWYRQAPGKEREFVARISDSGVGTYYADSVKGRFTISRDNAKNTVYLQMNSLKPEDTAVYYCDKQYGGRYGYWGQGTQVTVSS	low polyreactivity
QVQLVESGGGLVQAGGSLRLSCAASGRTFSKYAMGWYRQAPGKERELVAAITDGRGDTYYADSVKGRFTISRDNEKNTVYLQMNSLKPEDTAVYYCAADPGYSLYEYWGQGTQVTVSS	low polyreactivity
QVQLVESGGGLVQAGGSLRLSCAASGRTFSKYAMGWYRQAPGKERELVAAITSGGGTYYADSVKGRFTNSRDNAKNTVYLQMNSLIPEDTGVYSCAVSVTTVSTYDYWGQGTQVTVSS	low polyreactivity
QVQLVESGGGLVQAGGSLRLSCAASGRTFSKYTMGWYRQAPGKERELVAVISRSGTRTYYADSVKGRFTISRDNAKNTVYLQMNSLKPEDTAVYYCAAKDERRSFGMGYWGQGPQVTVSS	high polyreactivity
QVQLVESGGGLVQAGGSLRLSCAASGRTFSLNTMGWYRQAPGTERELVATISYSGDRTYYADSVKGRFTISRDNAKNTVYLQMNSLKPEETAVYYCAAQYWGRSYAGRYDYWGQGTQVTVSS	high polyreactivity
QVQLVESGGGLVQAGGSLRLSCAASGRTFSLYTMGWYRQAPGKERELVAAISSGDSTNYADSVKGRFTISRDNAKNTVYLQMNSLKPEDTAVYYCAKQQDSTSEFSTSDRRQYDYWGQGTQVTVSS	low polyreactivity
QVQLVESGGGLVQAGGSLRLSCAASGRTFSNAMGWYRQAPGKERELVADISSGGSTNYADSVKGRFTISRDNAKNTVYLQMNSLKPEDTAVYYCAAVSGSLYGYSDDYWGQGTQVTVSS	low polyreactivity
QVQLVESGGGLVQAGGSLRLSCAASGRTFSNYAIGWYRQAPGKEREFVSDISWSVGSTYYADSVKGRFTISRDNAKNTVYLQMNSLKPEDTALYYCATEVPVGGQRHLFKYYYWGQGTQVTVSS	low polyreactivity
QVQLVESGGGLVQAGGSLRLSCAASGRTFSNYAMGWYRQAPGKERELVAAISSGGSTNYADSVKGRFTISRDNAKNTVYLLMNSLKPEDTAVYYCAARQRAYYGPGFDYWGQGTQVTVSS	low polyreactivity
QVQLVESGGGLVQAGGSLRLSCAASGRTFSNYVMGWYRQAPAKERELVAAITYSGGSTYYADSVKGRFTISRDNATNTVYLQMNSLKPEDTAVYYCARRWGGRGYYYWGQGTQVTVSS	high polyreactivity
QVQLVESGGGLVQAGGSLRLSCAASGRTFSPYAMGWYRQAPGKERDLVAAINGGGGTTYYADSVKGRFTISRDNAKNTVYLQMNSLKPEDTAVYYCAAGYNYTSYADLDYWGQGTQVTVSS	low polyreactivity
QVQLVESGGGLVQAGGSLRLSCAASGRTFSPYDMGWSRQAPGKERELVAAISFSDTITYYADSVKGRFTISRDNAKNTVYLQMNSLKPEDTAVYYCAADAGGYYEWELYDYWGQGTQVTVSS	low polyreactivity
QVQLVESGGGLVQAGGSLRLSCAASGRTFSPYVMGWYRQAPGKETELVATITGGGGSTYYADSVKGRFTISRDNAKNTVFLQMNSLKPEDTAVYYCARGYRYYVYRMGYWGQGTQVTVSS	high polyreactivity
QVQLVESGGGLVQAGGSLRLSCAASGRTFSRNAMGWYRQAPGKERELVAAISRSGGSTYYADSVKGRFTISRDNAKNTVYFQLNSLKPEDTAVYYCKADVYSTYYNYNYWGQGTQVTVSS	high polyreactivity
QVQLVESGGGLVQAGGSLRLSCAASGRTFSRYAMGWYRQAPGKEREFVAAISASGGSTYYADSVKGRFTISRDNAKNTVYLQMNSLKPEDTAVYYCAASGYYRYYQYRYDYWGQGTQVTVSS	high polyreactivity
QVQLVESGGGLVQAGGSLRLSCAASGRTFSRYAMGWYRQAPGKERELVAAISNSGASTYYADSVKGRFTISRDNAKNTVYLQMNSLKPEDTAVYYCAAERYRLSYQYQEYYYWGQGTQVTVSS	high polyreactivity
QVQLVESGGGLVQAGGSLRLSCAASGRTFSSNAMGWYRQDPGKERELVASISFRGGRTYYADSVKGRFTISRDNAKNTVYLQMNSLKPEVTAVYYCVSGTKRTGYGYWGQGTQVTVSS	high polyreactivity
QVQLVESGGGLVQAGGSLRLSCAASGRTFSSYAMGWYIQAPGKERELVAAITRGGGSTYYADSVKGRFTISRDNAKNTVYLQMNSLKPEDTAVYYCAADYGRDYRAFNYWGQGTQVTVSS	high polyreactivity
QVQLVESGGGLVQAGGSLRLSCAASGRTFSSYAMGWYRQAPGKERELVADINRSGGSTYYADSVKGRFTISRDNAKNTVYLQMNSLKPEDTAVYYCNVRIWPWYGYDYWGQGTQVTVSS	low polyreactivity

Sequence	polyreactivity (PSR sort gate)
QVQLVESGGGLVQAGGSLRLSCAASGRTFSSYAMGWYRQAPGKERELVASISKSGGSTSYADSVKGRFTISRDNAKNTVYLQMNSLKPEDTAVYYCNARLDYSTYESSPVTRKRYYWGQGTQVTVSS	low polyreactivity
QVQLVESGGGLVQAGGSLRLSCAASGRTFSTNVMGWYRQAPGKERELVAAITTSSSRTYYADSVKGRFTISRDNAKNTVYLQMNSLKPEDTAVYYCAARIHGSWSFDYWGQCTQVTVSS	low polyreactivity
QVQLVESGGGLVQAGGSLRLSCAASGRTFSTYAMGGYRQAPGKERELVAVIRRDGSTSYADSVKGRFTISRDNAKNTVYLQMNSLKPEDTAVYYCAVTRRGEYYWGQGTQVTVSS	high polyreactivity
QVQLVESGGGLVQAGGSLRLSCAASGRTFSTYAMGWYRQAPGKERELVAAISWRGARTYYADSVKGRFTISRDNAKNTVYLQMNSLKPEDTAVYYCAVRSLVAIRGRAYYYWGQGTQVTVSS	high polyreactivity
QVQLVESGGGLVQAGGSLRLSCAASGRTFSTYTMGWYRQAPGKERELVAAITSSGGGTYYADSVKGRFTISRDNAKNTVYLQMNSLKPEDTAVSYCGTVRTYRPPVRRGYWGQGTQVTVSS	high polyreactivity
QVQLVESGGGLVQAGGSLRLSCAASGRTFSVNAMGWYRPAPGKERELVAAISWSTGSTYYADSVKGRFTISRDNAKNTVYLQMNSLKPEDTAVYYCAKLYEYRRSRYRTYGYWGQGTQVTVSS	high polyreactivity
QVQLVESGGGLVQAGGSLRLSCAASGRTFSVNAMGWYRQAPGKERELVAAISWDGGSTYYADSVKGRFTISRDNAKNSVYLQMNSLKPEDTAVYYCNKDLYYAYDYWGQGTQVTVSS	low polyreactivity
QVQLVESGGGLVQAGGSLRLSCAASGRTFSVNDMGWYRQAPGKERELVAAISFSGGSTYYADSVKGRFTISRDNAKNSVYLQMNSLKPEDTEVYYCAAEAYASCFYVITGFGIYDYWGQGTQVTVSS	high polyreactivity
QVQLVESGGGLVQAGGSLRLSCAASGRTFSVNDMGWYRQAPGKERELVAAISFSGGSTYYADSVKGRFTISRDNAKNTVYLQMNSLKPEDTAVYYCASEAYPSWFYVITGFGIYDYWGQGTQVTVSS	high polyreactivity
QVQLVESGGGLVQAGGSLRLSCAASGRTFSVYAMGSSRHAPGKERELVAAITESGGSTYYADSVKGRFTISRDNAKITVYLQMNSLKPEDTAVYYCNAGPYYWYVYWGQGTQVTVSS	low polyreactivity
QVQLVESGGGLVQAGGSLRLSCAASGRTFSVYAMGWYRQAPGKERELVARIRSGGSTYYADSVKGRFTISRDNAKNTVYLQMNRLKPEDTAVYYCATQHYGPSSNARGVYRYYYWGHGTQVTVSS	high polyreactivity
QVQLVESGGGLVQAGGSLRLSCAASGRTFSVYTMGWYRQAPGKERELVASINWSGGRTYYADSVKGRFTISRDNAKNTVYLQMNSLKPEDTAVYYCAATGWRTLYDYWGQGTQVTVSS	high polyreactivity
QVQLVESGGGLVQAGGSLRLSCAASGRTFSWNAMGWYRQAPGKERELVAAINRSGGITFYADSVKGRFTISRDNAKNTVYLHMNSLKPEDTAVYYSAADRSFGHHYWYSGKRYDYWGQGTQVTVSS	low polyreactivity
QVQLVESGGGLVQAGGSLRLSCAASGRTFSWYVMGWYRQAPGKERELVAAISWNGGRTYYADSVKGRFTISRDNAKNTVYLQMNSLKPEDTAVYYCNRDYYWRDGAKYIDDYWGQGTQVTVSS	high polyreactivity
QVQLVESGGGLVQAGGSLRLSCAASGRTFSYAMGWYRQAPGKERELVAAITSGGSTYYADSVKGRFTISRDNAKNTVYLQMNSLKPEDTAVYYCAKLLGNYARYDYWGHGTQVTVSS	high polyreactivity
QVQLVESGGGLVQAGGSLRLSCAASGRTFSYNAMGWYRQAPGKERELVAAISWSDGSTYYADSVKGRFTISRDNAKNTVYLQMNSLKPEDTAVYYCAVESFYRHASLYDNWGQGTQVTVSS	high polyreactivity
QVQLVESGGGLVQAGGSLRLSCAASGRTFSYNARGWYRPAPGKEMELVASISSSGTSTSYADSVKGRFTISRDYAKNTVYLQMNSLKPEDTAVYYCATVRYPYWYSGPQNSRGYWGQGSQVTVSS	high polyreactivity
QVQLVESGGGLVQAGGSLRLSCAASGRTFSYYALGWYRQAPGKERELVATISYSTGNTNYADSVKGRFTISRDNAKNTVYLQMNSLKPEDTAVYYCAADFSPFVGETYWKYDYWGQGTQVTVSS	low polyreactivity
QVQLVESGGGLVQAGGSLRLSCAASGRTFSYYAMGWSRQAPGKERELVAAMSWNGGSTYYADSVKGRFTISRDNAKNTVYFQMNSLKPEDTAVYYGAAAFYYYGDYDYWGQGTQVTVSS	low polyreactivity
QVQLVESGGGLVQAGGSLRLSCAASGRTFSYYAMGWYRPAPGKERELVARITYRGGRTYYADSVKGRFTISRDNAKNTVYLQMNSLKPEDTAVYYCATTSWRYGYDYWGQGTQVTVSS	high polyreactivity
QVQLVESGGGLVQAGGSLRLSCAASGRTFSYYAMGWYRQAAGKERELVAAISRAGRTNYADSVKGRFTISRDNAKNTVYLQMNSLKPEDTAVYYCAATGWLRIDRPYTYTYCYWGQGTQVTVSS	high polyreactivity
